For 1 substance, stoichiometry N results are on record in PMC2602759.

A word on the stoichiometry N: it is a count of units in the complex or per binding partner.

Values joined by “and” are separate entries in the source; they are usually repeats but may differ in a detail not shown here. Identical values can stand only once.

For test [1], the target named is HIV-1 integrase (IN) (HIV-1). As to the kind of experiment: cross-linking.
In test [2] the target is HIV-1 integrase (IN) (HIV-1). Nature of the test: SEC.

Turning to HIV-1 integrase (IN) (enzyme), the stoichiometry N in test [1] was 2; in test [2], 2 and 4.
